# According to a protein production outcome set (Wang et al. 2014):
# Assay: label from the status in PepcDB records
# 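Further: failed if final PepcDB status was selected cloned or expressed and not failed if soluble or beyond.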
row,Sequence,protein production
1,MDAMKYHDLRDFLTLLEQQGELKRITLPVDPHLEITEIADRTLRAGGPALLFENPKGYAMPVLCNLFGTPKRVAMGMGQDDVSALREVGKLLAFLKEPEPPKGFRDLFDKLPQFKQVLNMPTKRLRGAPCQQKIASGDDVDLTRLPVMTCWPDDAAPLITWGLTVTRGPHKERQNLGIYRQQLIGKNKLIMRWLSHRGGALDFQEWLAARPGERFPVSVALGADPATILGAVTPVPDTLSEYAFAGLLRGTKTEVVKCLSNDLEVPASAEIILEGYIEPGEMAPEGPYGDHTGYYNEVDSFPVFTVTHITQREDAIYHSTYTGRPPDEPAVLGVALNEVFVPILQKQFPEIVDFYLPPEGCSYRLAVVTMKKQYAGHAKRVMMGVWSFLRQFMYTKFVIVCDDDVNARDWNDVIWAITTRMDPARDTVLVENTPIDYLDFASPVSGLGSKMGLDATNKWPGETQREWGRPIVKDPEVTARIDAIWDELAIFKLEHHHHHH,not failed
2,MDAPGPKPLRVARYWLYTGEHPARTTEVPVWNKLCLSVCCAILVLTASSCGADKSSDFLTEGRKLMDAGNAAGAVVLFRNALEKTPADYTLHLELGRAYIALGKLDLAEGELQKCLRQQPDDPPLNLALGELYVARNEPAKALPHLARYEQGAGETAVSRELAGLAHAQARSPEEARAALERSIALDAKRVTPRLALARLFLYRGDLKRAVATVDEALAVAPEDRLALTLRGDLLLRQGDAPGALVVFRKVASLAPGDDYARYMSGLLALQTGDEAGAAAVAASMNKDFKDNSLTLMLDGALAAQRKDYTLAASLFQRSVAMRPSLEGYYKLGMALYGKGDLETALSQFNRVLEATPEYDAARRMTVTILLAQRRVAEARQEAQKLVERNPSDAAAHFMLASAQMAAGDRAGAERSFEAGLALQPAHVPALLQLSRLKQADGRPDEALEDLKAAVVAAPDDLAVRNALFAYHLGRGDTGKGVQVVLEGLRGTPQDAILYTMLVPVYVNMGDEAKGLDAVAQAHRADPDFPDAYLAGLRLHAGAGRAEQALAESEAYLARKPDAPGFLLASGALLDLLGRTAEADARFDKALAANDPRVSFAVAERAVASGQDEKARRVLEEALRQHDQTTLRDALAIQLARMGKPDDALALYTAIETQRPREALLGRYRLLTHLDRHQEAADTARELGRRESASPLPVLLEAAAFERMGQRPQGVALLEAAHRKSGDPELLLAMGGMLERNGDEARAETCYRDALKARPDHVPTLLAYAGLDMRRKEYAKATALYEKAVSIAPDDVVALNNLAMAYLEKASRDATPQKALRLALQAYTRAPDNPAVLDTLGVCMMANGRADDAARAFGRAVVAVPGNPSLRYRHAEALFKAGRKDMAAEELRAALQTPDFPEAAKARDLLRKTGN,failed
3,MDATMHLFREKSSIGRLNLARVGLLDCIFGVRLNVEYKKTVEIFDCAGHNHRSGGIRNHRPTNSQGNSHKIKWKNLLLAPYTLVHVLVPPDLNKTCCDCGVYALKYIECHFMGLSLDMLDDVNIKDARLRIAVDLWKAAFDPVFIDRMTKYKPPKINSEIIDINLSVKLLKLNLIDNILEGPLSESITRSKTLLELDNMLEPNCI,failed
4,MDCRLKCTNQCTSLMMAFDKSHTIKGCSTEFSLSMTDTPILGTVKEPQRDYRTLDRQKLTPMFQHYTEVKEQYQGALLLYRVGDFFECFFQDAVIIARELELILTSKEGGKEIGRVAMTGVPHHALDRYARQLVEKGYAVAICDQVEDAAEAQAEKRMVERQVTKLLTPGTLTDDSMLPAKRNNFLAAIAMVEDKWGLAHADISTGEFFTCQSSNLDDLAVELLRLQPSEVLIPTSAPDIRNILRPGEPSEHIPKQLPTSFCYSLRSQAPFSLVEAKQRLLTTFRVKSLEGMGCEGLPLAIRAAGGLLEYIEDTQKAHVVPIQPLKTYGLTDFLVLDHQTRRNLEINQTVRDGSFHGSLLWALDRTSTTMGSRALRRWLLQPLLDLKGIQARQDTIQELYHHPALRQDLRQLLRQIYDLERLTGRIGANTASARDVYGLASSLVRLTDLAELAQEGHSPYLKALQTVPPELEELGKYVLAHIVENPPLHIREGNLIRSGVNPTLDEMRQSLEDDNQWLANLEVTEREKTGIANLKVGYNKAFGYYLSLPRSKSEQAPDNYIRKQTLVNEERYITPELKERETRILTAQADLNQLEYEIFTEVRATVAEKAQPIRDVAKAVAAIDVLAGLAEVAVYQGYCRPIMQMEPGLIDIEAGRHPVVEQSLGAGFFVANDTQLGHDHWHPDLVILTGPNASGKSCYLRQVGLIQLMAQTGSFIPAKTATLSICDRIFTRVGAVDDLATGQSTFMVEMNETANILNHATAKSLVLLDEIGRGTATFDGLAIAWSVAEYLAGEIQARTIFATHYHELNELASLLENVANFQVTVKELPEEIIFLHQVTPGGADKSYGIEAGRLAGLPSSVITRARQVMAQIEKHSKIAVGLRKGNRGKVMASQAAAEAAEDQAKQLDIFGF,failed
